From paper PMC6281676 (Scientific Reports, 2018)

Legend:
[1] = Appearance of mixed solution of peptide drug and penetratin; type: physicochemical; settings: peptide drug 2.5 mg/mL plus L- or D-penetratin 2.0 mM in PBS pH 6.0 with 0.001% methylcellulose; visual
[2] = 15 min after 30th intranasal administration of exendin-4 1 mg/mL, L-penetratin 2 mM and insulin 8 IU/mL (1 IU/kg)
Experimental: (§1) Every morning at 10 AM, mice were anesthetized by an i.p. injection of sodium pentobarbital (50 mg/kg), and restrained in a supine position. […] The untreated control SAMP8 and SAMR1 received intranasal administration of only the vehicle (PBS pH 6.0). After each administration, mice were kept in a supine position for 15 min and then returned to their cages.

[3] = up to 60 min after 29th intranasal administration of exendin-4 and insulin with L-penetratin; tail vein, glucose meter
Experimental: as §1
Blood was obtained from the tail vein before and 15, 30, and 60 min after administration, and the blood glucose concentration was measured using a glucose meter (One Touch Ultra View, Johnson & Johnson K.K., Tokyo, Japan).

[4] = system: hippocampal neuronal cells; experiment: Immunohistological staining of brain specimens with anti-NeuN antibody (neuronal cell counts); type: in vivo, SAMP8 mice; settings: after 30th intranasal administration of exendin-4 ± L-penetratin ± insulin; 38 weeks of age; n = 4–8
Experimental: At 15 min after administration, blood samples were taken from the left jugular vein. Immediately after blood withdrawal, the abdominal cavity was opened, and the intravascular content in the brain was flushed by perfusion of ice-cold PBS (pH 7.4) into the left ventricle of the heart at 5.5 mL/min for 5 min using a peristaltic pump (ATTO Corp.). Right afterwards, the brain was fixed by perfusion of ice-cold 4% PFA into the brain at 5.5 mL/min for 10 min. Subsequently, the whole brain was carefully isolated and washed with ice-cold PBS (pH 7.4) and weighed after removal of the water content.
The right side of the brain obtained as described above was immersed in 4% PFA for 24 h and then moved to ice-cold PBS (pH 7.4) and stored at 4 °C. After removing the PBS, the brain was trimmed coronally to obtain 3-mm slices at the position of Bregma −1.5 mm. […]
A thin slice at Bregma −2.0 mm was obtained and mounted on a glass slide, deparaffinized, and immersed in citrate buffer for 40 min in a water bath at 98 °C to activate the antigen. […] The stained brain tissue was observed by microscopy (Olympus BX51 and DP71), and the NeuN-positive cell numbers in the hippocampus were analyzed using WinROOF (Mitani Corp., Tokyo, Japan). […]

| Substance | appearance of solution after mixing [1] | insulin level in plasma ([2]; ELISA, mean ± SEM) [μU/mL] | brain concentration of insulin ([2]; human insulin ultrasensitive ELISA) | blood glucose level [3] [mg/dL] | NeuN-positive hippocampal neuronal cell counts [4] |
| --- | --- | --- | --- | --- | --- |
| HAEGTFTSDVSSYLEGQAAKEFIAWLVKGR-NH2 [GLP-1, glucagon-like peptide-1, incretin peptide, synthesized by Sigma-Genosys] | clear | – | – | – | – |
| insulin: Recombinant human insulin (27.5 IU/mg), Wako | – | 41.1 ± 11.8 | less than the lower detection limit | > 70 | no proliferation effect |
